Paper PMC2364200

Biological target: vitronectin (UniProt P04004)
UniProt P04004, sequence (P04004 20-478): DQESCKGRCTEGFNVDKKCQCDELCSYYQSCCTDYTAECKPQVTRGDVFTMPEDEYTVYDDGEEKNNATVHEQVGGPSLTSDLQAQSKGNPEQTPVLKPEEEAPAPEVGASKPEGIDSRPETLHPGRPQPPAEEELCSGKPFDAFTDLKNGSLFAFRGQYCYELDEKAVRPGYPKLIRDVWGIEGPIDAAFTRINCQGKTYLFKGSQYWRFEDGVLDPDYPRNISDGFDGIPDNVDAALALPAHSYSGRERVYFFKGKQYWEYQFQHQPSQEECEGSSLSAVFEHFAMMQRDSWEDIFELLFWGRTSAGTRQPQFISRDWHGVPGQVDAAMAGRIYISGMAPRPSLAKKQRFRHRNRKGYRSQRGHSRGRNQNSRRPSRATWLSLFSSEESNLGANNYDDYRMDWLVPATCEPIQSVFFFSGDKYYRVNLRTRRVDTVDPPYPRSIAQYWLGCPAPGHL

| Substance | adhesion of V3B3S11aa cells on vitronectin (C1 null transfectant cells without avb3: 6.52%) [%] | haptotactic migration of V3B3S11aa cells towards vitronectin (C1 cells: 2.01%) [%] | haptotactic migration of V3B3S11aa cells towards vitronectin in the presence of LM609 [%] | inhibition of adhesion of V3B3S11aa cells to vitronectin by LM609 (anti-avb3 blocking antibody) [%] | adhesion of V3B3 cells on vitronectin (C1 null transfectant cells without avb3: 6.52%) [%] | haptotactic migration of V3B3 cells towards vitronectin (C1 cells: 2.01%) [%] | haptotactic migration of V3B3 cells towards vitronectin in the presence of LM609 [%] | inhibition of adhesion of V3B3 cells to vitronectin by LM609 (anti-avb3 blocking antibody) [%] |
| --- | --- | --- | --- | --- | --- | --- | --- | --- |
| avb3 integrin heterodimer with the b3 chimaeric mutant whose cytoplasmic domain is extended by the C-terminal 11 amino acids of b6 (on V3B3S11aa squamous cell carcinoma cells) (from UniProt P06756 31-1048; P05106 27-788; P18564 778-788) (receptor) | 39.5 | 21.8 | 0 | 26 | – | – | – | – |
| avb3 integrin heterodimer, wild type b3 (on V3B3 squamous cell carcinoma cells) (from UniProt P06756 31-1048; P05106 27-788) (receptor) | – | – | – | – | 38.6 | 20.3 | 3.92 | 30.6 |
